In the supplement of paper PMC12042874:
± gives the uncertainty stated by the source.

assay: amyloid nucleation score (Sup35N fusion, yeast selection) (log enrichment); library NNK3; higher = more nucleation; inactive = no reads after selection
Procedure, shortened: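 Nucleation score is defined as the DiMSum log enrichment of output over input reads, with centring on the mode score of non-aggregating sequences. A minimum of 100 input reads was required for each sequence. Reads came from Illumina sequencing of plasmid inserts from psi-negative yeast expressing Sup35N fused to peptides of 20 random codons, induced with 100 μM copper sulfate for 24 hours and grown 7 days at 30°C on medium lacking adenine and uracil.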

Substance	amyloid nucleation score
CVGSVPVMTKMVGDMGMASR	inactive
GAMWLSCT	inactive
RQFCSQLICSIMVYVCLCGI	inactive
SALPVTSCFFTTMCGTVIID	inactive
SSSSMFALLPICY	inactive
MTCTTCACDDICSNKLVLFH	inactive
DQSNSSEGILCYNLCVLMTE	2.43 ± 0.072
VNDVLIRKCLAMESNVNEAI	inactive
ISINLIVRCRRLHTPHLPVK	inactive
EFFSCYTEYPFRPAFLILTT	inactive
YSFWIVFMRY	inactive
LGFFCVIFVS	inactive
CGSWAYRY	0.435 ± 0.19
SDYSLYWFK	inactive
IQPCFIGIGVGYSRFVGRFF	0.982 ± 0.22
SPALQMWKACTWLNRTLSPV	0.582 ± 0.15
PFSSLASVVPLRGFG	inactive
LPAWKKTAFYFRYHGPFVRS	inactive
VTVLQM	inactive
DLVCTSLTRVAYRELIVWWF	inactive
AHLQVYFSSNVC	inactive
HVFSITLAVGTYLLTRLYSQ	1.07 ± 0.1
MRNGCCNACKILLDIRLFL	1.96 ± 0.059

Substance	amyloid nucleation score
YDNANGRTRIIMISGRVSNY	inactive
CSKIFGRERMFYRVDMVS	inactive
CCFTLGAVSNCSLRGNSQTL	-1.2 ± 1.9
TWTDCERRLDIVKEMLNYIQ	inactive
LFSSRYDLIDVNVRGVDYSQ	inactive
RGIANCPHLCIAYLMLS	inactive
FQARTPACPYVCSS	inactive
FGLVRTNRDILH	inactive
VVDGSRCPPLSLSSDMWAR	inactive
FSLDVDDGVFS	inactive
NRLCFISAMCNVTYWVICNH	inactive
RVKRWK	-0.095 ± 0.85
RYSVYGLNICFL	2.45 ± 0.083
IVAGVMADNDIRQDCAWKFK	1.34 ± 0.12
LVFGLLLS	inactive
QFLRGVMPAGMECAHATMRW	inactive
MDSLGW	inactive
GSKLICIVWLFLLFG	inactive
KEADSVNDRLVNLLMHGTLC	inactive
HIVKIRSG	inactive
LGSAGYSSQGLWCLVLRVPL	inactive
EMLCVDYWTFGYMVLREVTI	inactive
GFHLGFHGWNCKLAK	-0.349 ± 0.49

Substance	amyloid nucleation score
FLLVFC	-0.021 ± 0.3
CNTGPEIMASVAKVDVWVIK	1.65 ± 0.11
NRFMVPETVKENIACFQTIQ	inactive
LPTIQILRQNTVPIGVHHKF	inactive
LFDFADSMVRQVRTDAKRLN	inactive
SRCWVYRKRTPCNVY	inactive
IALSLLKTAKIMY	inactive
SGDPSSLEDIGFVIYWRIYI	inactive
SSYSVVFEQ	inactive
LFLFESQTCDSRVQNCISFG	inactive
SAQNYTL	inactive
FRYPIYGFFGMTGPTNSLTA	inactive
IFIAKLENTVSRLFTFCFIM	inactive
PKSYVNTVKVMVVNSQVQLQ	0.836 ± 0.2
LWQNSDLSSSDEYGQRFGKR	-0.706 ± 1
VSEFFFP	inactive
NKAIILHVM	inactive
DTMNLRWSVWRRHVWCLTGE	inactive
RYLLPQIPLLYKWKLLILHG	inactive
CCVCLCACRLFCSIVADYRR	inactive
DASSDRVSVYSAYK	inactive
FSIRDSTTLKVPEECLSTWI	inactive
GKTNNLLSFFSKTPLTFSCL	inactive

Substance	amyloid nucleation score
HYTTASFDVDNPLRLLLLLQ	inactive
FPKLWLFNYYVNRRIRSSSF	inactive
LTTICS	inactive
GIYRYVQGWHDAPHGGNCTE	inactive
LFMCMIFDCDIRIVNSVGCI	1.43 ± 0.14
PMCFSSHRFGTCRINWHVPG	inactive
VRLRDLN	inactive
YGDEASPLSFCIDHEDRVKV	inactive
EERIT	inactive
TWLSFIRLNMMPINTSTCYP	inactive
PFWELYKDFSSICRLTQEGY	inactive
AFLPMCGLDFKWRYV	-0.22 ± 1.4
LCALTS	inactive
SVLSLLLCYRCSRL	-0.081 ± 0.98
FYYIVIFSNHWPSCILCRGR	0.792 ± 0.28
PRNHIRSLSM	inactive
MRMVTPLSGRPRWYLHF	inactive
SHCVSTT	inactive
RWLTVKPSRIRLWGCSWGLR	inactive
ITGMVPWSSLESSRPGSLKR	inactive
FDFKAYESCCSLLRYLMDPW	inactive
SERYEEMTFSDGYMFSRDDL	inactive
GNVQFCRFFFDMSSLHDIMT	inactive

Substance	amyloid nucleation score
CAVALLNHRG	inactive
TQRVGERGIIMYHPWIGYYV	0.189 ± 0.26
YYVTQGVRVGQYLTNRERDE	-0.195 ± 0.44
QLSHKACLWLSCSSGIPLGS	inactive
FRPGLYSYMPSC	-0.451 ± 0.88
MMIIL	inactive
WKNNRLNIIYQPLLGTQICK	inactive
FLGGRTLTSLPE	inactive
PIAFSIALPRVVCRQ	inactive
NDHVRAFTDIFMCTMAIMND	inactive
NKNHYFRVF	inactive
GCKLIEWDVLIVDPMPARGR	inactive
VGGIRLRIE	inactive
SSTRIMNISVSRWSEMDKPD	inactive
VSLVWDMHWHSYRVSSELCR	inactive
VCVRYFGDIFYVLYTFVMRA	0.051 ± 0.46
ETYWQINSTECKFTSFQRLF	inactive
TVWELM	-0.068 ± 0.33
IMVRSIISGFRLMESRKLDS	inactive
CEISLV	0.767 ± 0.16
EWFEKIFIRLTGHRTKFYNS	inactive
VMNHLRRTNLVPTSAVNAYN	inactive
PCPLGPYLGYFTETSYAHGM	inactive

Substance	amyloid nucleation score
HKGAQPVKVKSGQSDTRPPS	inactive
PGKYGLV	inactive
LWASTVGVFVGRRSPYLMCW	inactive
MSSFLTPAGRFSRYFTFVCF	inactive
PSHTLRNTSLSMSVSTTHKA	inactive
YSVTAHPLDHTNPRGNYPDH	inactive
LCGPSDLAT	0.096 ± 0.66
TRYLSSFISYGEDSMHVFCG	inactive
GEMVFGVVWIVELETFCIPI	inactive
FGSVERFLLDPLTGHVGRFF	inactive
YGFCSC	-0.033 ± 0.81
IANRKSGMKSTRKKESWH	inactive
YHCAFVSINSECMVDGLTLC	0.883 ± 0.15
GWMYTCRDAHYLDGWRLVHD	inactive
CLCWKAVLDRELFKSGFTAA	inactive
SSSTANYLSIKFSLSLLKYN	0.905 ± 0.14
WCSPQFRLSFYLGISNDHWC	0.966 ± 0.09
NDARAVGCTLRYKGLAIYSY	inactive
SWIVRLWCVMWNNLFVFIRN	inactive
PNRLTPFQRSTSSHLQNVGQ	inactive
KWCKKKQFKSLDWLTYDI	inactive
ERRIKDLTECSNR	inactive
GYNIMLYMLKYS	inactive

Substance	amyloid nucleation score
SLLGSRNRRSGWTQFVKLVW	inactive
YSFVAVSSFDREHSRIFGVS	inactive
NHGATLFECSYCNCSLAFR	2.83 ± 0.081
RYTTY	inactive
RDGFN	inactive
QYFVP	inactive
NMLVCITSDGLYFYCCGANS	1.5 ± 0.11
REWRSNDGFFGSDSGVVGHT	inactive
MYVLLHTSQVL	inactive
KGGDELYFEELDEWSQGSRR	inactive
YLTEWDLGNVWRNPSAATPM	inactive
SFESVVYYSWRFVAKFKFWT	inactive
YYLFWVAFDMMLRLRFFVMD	inactive
FRVLDRSKKVNYRSFLYLIR	inactive
HYGEFHKTNCARYRYFI	inactive
RDFTSYGCFVASSSLDRSFL	inactive
TTMRCEIKSLYWIISQCWLD	inactive
ANHDVLADVCRLSRRGVLRR	inactive
FNAYNIFVKVPNVMPSS	2.19 ± 0.09
YRAYVYEDTFWWAWYQFILL	inactive
TSWRVFVGYWMG	inactive
